Measurements: CN114573710A

Key:
[1] = molecular target: CD47 on lymphoma cell lines Raji, Daudi and Romas (UniProt Q08722); assay: flow cytometry, Romas cells incubated with CD19-s47-CART supernatant, detected with anti-HA-APC
[2] = molecular target: CD47 on lymphoma cell lines Raji, Daudi and Romas (UniProt Q08722); assay: flow cytometry, Raji cells incubated with CD19-s47-CART supernatant, detected with anti-HA-APC
[3] = molecular target: CD47 on lymphoma cell lines Raji, Daudi and Romas (UniProt Q08722); assay: flow cytometry, Daudi cells incubated with CD19-s47-CART supernatant, detected with anti-HA-APC

Measured: 结合率

Sequence of UniProt Q08722 (Q08722 19-323 limits assumed): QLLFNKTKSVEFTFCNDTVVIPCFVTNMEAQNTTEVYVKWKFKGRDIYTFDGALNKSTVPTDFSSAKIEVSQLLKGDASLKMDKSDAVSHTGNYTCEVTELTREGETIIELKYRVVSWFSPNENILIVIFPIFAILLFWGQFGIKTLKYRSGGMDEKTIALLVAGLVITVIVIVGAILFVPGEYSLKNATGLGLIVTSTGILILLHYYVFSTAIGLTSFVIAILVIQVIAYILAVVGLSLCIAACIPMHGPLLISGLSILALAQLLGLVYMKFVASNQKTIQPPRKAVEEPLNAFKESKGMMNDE

B1: 外泌蛋白s47 (抗CD47单链抗体, CD47 ScFv, 末尾连接HA标签) (scFv)
scFv: DVVMTQSPLSLPVTPGEPASISCRSSQSIVYSNGNTYLGWYLQKPGQSPKLLIYKVSNRFSGVPDRFSGSGSGTDFTLKISRVEAEDVGVYHCFQGSHVPYTFGGGTKVEIKGGGGSGGGGSGGGGSQVQLVQSGAEVKKPGASVKVSCKASGYTFTNYNMHWVRQAPGQGLEWIGTIYPGNDDTSYNQKFKDKATLTADKSTSTAYMELSSLRSEDTAVYYCARGGYRAMDYWGQGTLVTVSSYPYDVPDYA
100 %: all assays above
